{"source": "patent US20120276098A1", "about": "(GlaxoSmithKline, published 2012)", "binders": {"B1": {"name": "Rat serum albumin (other, UniProt P02770 25-608, looked up)", "chain": "EAHKSEIAHRFKDLGEQHFKGLVLIAFSQYLQKCPYEEHIKLVQEVTDFAKTCVADENAENCDKSIHTLFGDKLCAIPKLRDNYGELADCCAKQEPERNECFLQHKDDNPNLPPFQRPEAEAMCTSFQENPTSFLGHYLHEVARRHPYFYAPELLYYAEKYNEVLTQCCTESDKAACLTPKLDAVKEKALVAAVRQRMKCSSMQRFGERAFKAWAVARMSQRFPNAEFAEITKLATDVTKINKECCHGDLLECADDRAELAKYMCENQATISSKLQACCDKPVLQKSQCLAEIEHDNIPADLPSIAADFVEDKEVCKNYAEAKDVFLGTFLYEYSRRHPDYSVSLLLRLAKKYEATLEKCCAEGDPPACYGTVLAEFQPLVEEPKNLVKTNCELYEKLGEYGFQNAVLVRYTQKAPQVSTPTLVEAARNLGRVGTKCCTLPEAQRLPCVEDYLSAILNRLCVLHEKTPVSEKVTKCCSGSLVERRPCFSALTVDETYVPKEFKAETFTFHSDICTLPDKEKQIKKQTALAELVKHKPKATEDQLKTVMGDFAQFVDKCCKAADKDNCFATEGPNLVARSKEALA", "notes": "also called RSA"}, "B2": {"name": "DAT 0120: GLP-1 (7-37) A8G, helical linker, DOM7h-14 fusion (other)", "chain": "HGEGTFTSDVSSYLEGQAAKEFIAWLVKGRGKEAAAKEAAAKEAAAKELAAKEAAAKEAAAKEAAAKELAADIQMTQSPSSLSASVGDRVTITCRASQWIGSQLSWYQQKPGKAPKLLIMWRSSLQSGVPSRFSGSGSGTDFTLTISSLQPEDFATYYCAQGAALPRTFGQGTKVEIKR", "notes": "also called DAT 0120: GLP-1 A8G, helical linker, DOM7h-14 fusion"}}, "assay_in_all_cases": "SPR (Biacore), serum albumin immobilised on CM5 chip, fusion flowed at 16 nM to 2 uM", "key": {"[1]": {"target": "DAT 0117: Exendin 4, helical linker, DOM7h-14 fusion", "experimental": "(§1) The analysis was performed using a CM5 Biacore chip (carboxymethylated dextran matrix) that was coated with serum albumin.\n(§2) Affinity (KD) was calculated from the BIACORE traces by fitting on-rate and off-rate curves to traces generated by concentrations of dAb in the region of the KD."}, "[2]": {"target": "T1, Mouse serum albumin (mouse, UniProt P07724 25-608)", "T1 construct": "also called MSA", "T1 sequence (P07724 25-608 limits assumed)": "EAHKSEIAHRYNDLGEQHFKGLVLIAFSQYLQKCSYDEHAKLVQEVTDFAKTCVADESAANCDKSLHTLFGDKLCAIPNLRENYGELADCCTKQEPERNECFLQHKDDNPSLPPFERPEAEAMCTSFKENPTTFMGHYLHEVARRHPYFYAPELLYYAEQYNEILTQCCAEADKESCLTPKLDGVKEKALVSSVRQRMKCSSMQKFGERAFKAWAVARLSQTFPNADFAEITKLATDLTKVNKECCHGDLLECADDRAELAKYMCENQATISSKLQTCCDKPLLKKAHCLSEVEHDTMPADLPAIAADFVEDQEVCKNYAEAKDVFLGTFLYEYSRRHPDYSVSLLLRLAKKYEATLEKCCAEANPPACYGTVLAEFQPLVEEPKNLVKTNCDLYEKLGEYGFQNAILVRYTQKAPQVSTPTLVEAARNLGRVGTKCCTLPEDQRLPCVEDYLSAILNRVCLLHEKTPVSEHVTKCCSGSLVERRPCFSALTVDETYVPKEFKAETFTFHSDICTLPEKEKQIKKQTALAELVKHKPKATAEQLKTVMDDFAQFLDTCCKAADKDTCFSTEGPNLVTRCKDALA", "experimental": "as §1, §2"}, "[3]": {"target": "B1", "experimental": "as §1, §2"}, "[4]": {"target": "T2, Human serum albumin (human, UniProt P02768 25-609)", "T2 construct": "also called HSA", "experimental": "as §1, §2"}}}
{"binder": "B1", "values": [{"measurement": "Kd", "setting": "[1]", "result": 700, "unit": "nM"}]}
{"binder": "B2", "values": [{"measurement": "Kd", "setting": "[2]", "result": 110, "unit": "nM"}, {"measurement": "Kd", "setting": "[3]", "result": 800, "unit": "nM"}, {"measurement": "Kd", "setting": "[4]", "result": 110, "unit": "nM"}]}
